B1: Biotinylated full length PcrA (Geobacillus stearothermophilus), wild type [modified: biotin; biotin] [Geobacillus stearothermophilus] / DNA pol I, Bacillus subtilis [B. subtilis 168 (endogenous in the cell extract)] (parent complex)
chain 1: MNFLSEQLLAHLNKEQQEAVRTTEGPLLIMAGAGSGKTRVLTHRIAYLMAEKHVAPWNILAITFTNKAAREMRERVQSLLGGAAEDVWISTFHSMCVRILRRDIDRIGINRNFSILDPTDQLSVMKTILKEKNIDPKKFEPRTILGTISAAKNELLPPEQFAKRASTYYEKVVSDVYQEYQQRLLRNHSLDFDDLIMTTIQLFDRVPDVLHYYQYKFQYIHIDEYQDTNRAQYTLVKKLAERFQNICAVGDADQSIYRWRGADIQNILSFERDYPNAKVILLEQNYRSTKRILQAANEVIEHNVNRKPKRIWTENPEGKPILYYEAMNEADEAQFVAGRIREAVERGERRYRDFAVLYRTNAQSRVMEEMLLKANIPYQIVGGLKFYDRKEIKDILAYLRVIANPDDDLSLLRIINVPKRGIGASTIDKLVRYAADHELSLFEALGELEMIGLGAKAAGALAAFRSQLEQWTQLQEYVSVTELVEEVLDKSGYREMLKAERTIEAQSRLENLDEFLSVTKHFENVSDDKSLIAFLTDLALISDLDELDGTEQAAEGDAVMLMTLHAAKGLEFPVVFLIGMEEGIFPHNRSLEDDDEMEEERRLAYVGITRAEEELVLTSAQMRTLFGNIQMDPPSRFLNEIPAHLLETASRRQAGASRPAVSRPQASGAVGSWKVGDRANHRKWGIGTVVSVRGGGDDQELDIAFPSPIGIKRLLAKFAPIEKV
chain 2: MTERKKLVLVDGNSLAYRAFFALPLLSNDKGVHTNAVYGFAMILMKMLEDEKPTHMLVAFDAGKTTFRHGTFKEYKGGRQKTPPELSEQMPFIRELLDAYQISRYELEQYEADDIIGTLAKSAEKDGFEVKVFSGDKDLTQLATDKTTVAITRKGITDVEFYTPEHVKEKYGLTPEQIIDMKGLMGDSSDNIPGVPGVGEKTAIKLLKQFDSVEKLLESIDEVSGKKLKEKLEEFKDQALMSKELATIMTDAPIEVSVSGLEYQGFNREQVIAIFKDLGFNTLLERLGEDSAEAEQDQSLEDINVKTVTDVTSDILVSPSAFVVEQIGDNYHEEPILGFSIVNETGAYFIPKDIAVESEVFKEWVENDEQKKWVFDSKRAVVALRWQGIELKGAEFDTLLAAYIINPGNSYDDVASVAKDYGLHIVSSDESVYGKGAKRAVPSEDVLSEHLGRKALAIQSLREKLVQELENNDQLELFEELEMPLALILGEMESTGVKVDVDRLKRMGEELGAKLKEYEEKIHEIAGEPFNINSPKQLGVILFEKIGLPVVKKTKTGYSTSADVLEKLADKHDIVDYILQYRQIGKLQSTYIEGLLKVTRPDSHKVHTRFNQALTQTGRLSSTDPNLQNIPIRLEEGRKIRQAFVPSEKDWLIFAADYSQIELRVLAHISKDENLIEAFTNDMDIHTKTAMDVFHVAKDEVTSAMRRQAKAVNFGIVYGISDYGLSQNLGITRKEAGAFIDRYLESFQGVKAYMEDSVQEAKQKGYVTTLMHRRRYIPELTSRNFNIRSFAERTAMNTPIQGSAADIIKKAMIDMAAKLKEKQLKARLLLQVHDELIFEAPKEEIEILEKLVPEVMEHALALDVPLKVDFASGPSWYDAK
B2: Biotinylated full length PcrA (Geobacillus stearothermophilus), wild type [modified: biotin; biotin] [Geobacillus stearothermophilus] / UvrB, Bacillus subtilis [B. subtilis 168 (endogenous in the cell extract)] (parent complex)
chain 1: B1 chain 1
chain 2: MKDRFELVSKYQPQGDQPKAIEKLVKGIQEGKKHQTLLGATGTGKTFTVSNLIKEVNKPTLVIAHNKTLAGQLYSEFKEFFPNNAVEYFVSYYDYYQPEAYVPQTDTFIEKDASINDEIDKLRHSATSALFERRDVIIIASVSCIYGLGSPEEYREMVVSLRTEMEIERNELLRKLVDIQYARNDIDFQRGTFRVRGDVVEIFPASRDEHCVRVEFFGDEIERIREVDALTGEILGDRDHVAIFPASHFVTRAEKMEKAIQNIEKELEEQLKVMHENGKLLEAQRLEQRTRYDLEMMREMGFCSGIENYSRHLTLRPPGSTPYTLLDYFPDDFMIVVDESHVTIPQVRGMFNGDQARKQVLVDHGFRLPSALDNRPLRFEEFEKHMHNIVYVSATPGPYEIEHTDEMVEQIIRPTGLLDPLIDVRPIEGQIDDLIGEIQARIERNERVLVTTLTKKMSEDLTDYLKEIGIKVNYLHSEIKTLERIEIIRDLRLGKYDVLVGINLLREGLDIPEVSLVAILDADKEGFLRSERSLIQTIGRAARNAEGRVIMYADKITKSMEIAINETKRRREQQERFNEEHGITPKTINKEIRDVIRATVAAEDKAEYKTKAAPKLSKMTKKERQKVVEQMEHEMKEAAKALDFERAAELRDLLLELKAEG
B3: Biotinylated full length PcrA (Geobacillus stearothermophilus), wild type [modified: biotin; biotin] [Geobacillus stearothermophilus] / LigA (NAD+-dependent DNA ligase), Bacillus subtilis [B. subtilis 168 (endogenous in the cell extract)] (parent complex)
chain 1: B1 chain 1
chain 2: MDKETAKQRAEELRRTINKYSYEYYTLDEPSVPDAEYDRLMQELIAIEEEHPDLRTPDSPTQRVGGAVLEAFQKVTHGTPMLSLGNAFNADDLRDFDRRVRQSVGDDVAYNVELKIDGLAVSLRYEDGYFVRGATRGDGTTGEDITENLKTIRNIPLKMNRELSIEVRGEAYMPKRSFEALNEERIKNEEEPFANPRNAAAGSLRQLDPKIAAKRNLDIFVYSIAELDEMGVETQSQGLDFLDELGFKTNQERKKCGSIEEVITLIDELQAKRADLPYEIDGIVIKVDSLDQQEELGFTAKSPRWAIAYKFPAEEVVTKLLDIELNVGRTGVITPTAILEPVKVAGTTVSRASLHNEDLIKEKDIRILDKVVVKKAGDIIPEVVNVLVDQRTGEEKEFSMPTECPECGSELVRIEGEVALRCINPECPAQIREGLIHFVSRNAMNIDGLGERVITQLFEENLVRNVADLYKLTKERVIQLERMGEKSTENLISSIQKSKENSLERLLFGLGIRFIGSKAAKTLAMHFESLENLKKASKEELLAVDEIGEKMADAVITYFHKEEMLELLNELQELGVNTLYKGPKKVKAEDSDSYFAGKTIVLTGKLEELSRNEAKAQIEALGGKLTGSVSKNTDLVIAGEAAGSKLTKAQELNIEVWNEEQLMGELKK

Variants of: B1
Assay: pulldown quantified by mass spectrometry; parent: 97; read off a plot

Variant	screen value
chain 1 L714A	~70
chain 1 K712A	~49

Variants of: B2
Assay: pulldown quantified by mass spectrometry; parent: 12; read off a plot

Variant	screen value
chain 1 L714A	~2.3
chain 1 K712A	~0

Variants of: B3
Assay: pulldown quantified by mass spectrometry; parent: 26; read off a plot

Variant	screen value
chain 1 K712A	~21
chain 1 L714A	~25
